Reference: patent publication US10246503B2, “Method of improving the pharmacokinetic profile of a therapeutic polypeptide and the use thereof” (BEIJING ANXINHUAIDE BIOTECH. CO., LTD, priority 2012, dated 2019)

Assays:
[1] = pharmacokinetics in cynomolgus monkeys, sandwich ELISA; assay type: in vivo; details: subcutaneous, 5 nmol/kg
Method: The GLP-1 concentrations within the samples were examined by use of the sandwich ELISA method. The rabbit polyclonal antibody against human Fibronectin at the concentration of 3 ug/ml (Ab299, Abcam company) was coated on ELISA plate for 1 hour at room temperature. Then the plate was washed by PBST buffer three times and the wells were blocked by PBS with 10% FBS for 1 hour at room temperature. The plate was washed three times before the serum samples containing GLP-1 fusion proteins were added. The serum samples could be diluted to 20-10000 folds before use. The ELISA plate was incubated with the serum samples at room temperature for 1 hour and then washed by PBST buffer five times. Then mouse monoclonal against human GLP-1 peptide antibody (sc57510, Santa Cruz Biotechnology) at the concentration of 1 ug/ml in PBST buffer was added to the wells. The plate was washed extensively after incubation of 1 hour at room temperature. The secondary antibody, […] HRP conjugated antibody (Beijing ZSGB-Bio company, ZB 5301), was added into the wells and the color was developed using TMB (3,3′,5,5′-tetramethylbenzidine, BD Biosciences, Cat 555214). The plate reader (Bio-Rad microplate reader Model 680) was utilized to obtain the OD450 readings. This method has been calibrated using purified proteins first.
To further investigate the pharmacokinetics profiles for the GLP-1 containing fusion proteins generated using the method of the invention, the fusion protein GLP1(A8G/G22E/R36G)-Fn8-p246-COL18NC1 was administrated into the cynomolgus monkeys by subcutaneous injection. The fusion protein was administered on three cynomolgus monkeys at the dose of 5 nmol/kg. Blood samples were taken at various time points after injections such as 0-min, 2-hour, 4-hour, 6-hour, 8-hour, 24-hour, 48-hour, and daily until the 15th day. The serum samples were centrifuged and kept at −80° C. freezer. The concentrations of the fusion protein within the serum samples were examined by using the sandwich ELISA method described above. The pharmacokinetics profile of the fusion protein GLP1(A8G/G22E/R36G)-Fn8-p246-COL18NC1 in cynomolgus monkeys was shown in FIG. 8. The pharmacokinetics parameters were obtained by using the WinNonlin software (Table 5).

SD rats = assay: Intraperitoneal glucose tolerance test (IPGTT) in SD rats; assay type: in vivo, SD (Sprague-Dawley) rats
Method: In this figure, GLP1(A8G/G22E/R36G)-Fn8-p246-COL18NC1 is labeled as p246. In FIG. 9a, the rats were injected with saline, GLP1(A8G/G22E/R36G)-Fn8-p246-COL18NC1 at the dose of 10_nmol/kg and 20_nmol/kg, respectively. 8 hours after the administrations of the fusion protein (and control), the IPGTT experiments were conducted. The three curves indicated the glucose levels in the IPGTT for rats that received negative control (saline), GLP1(A8G/G22E/R36G)-Fn8-p246-COL18NC1 at the doses of 10_nmol/kg and 20_nmol/kg, respectively. In FIG. 9b, the rats were injected with saline, GLP1(A8G/G22E/R36G)-Fn8-p246-COL18NC1 at the dose of 20 nmol/kg. 32 hours and 102 hours after the administrations of the fusion protein (and the control), the IPGTT experiments were conducted. The three curves indicated the glucose levels in the IPGTT for rats that 32 hours and 102 hours after administration of negative control (saline), GLP1(A8G/G22E/R36G)-Fn8-p246-COL18NC1 respectively.
To evaluate the efficacy of GLP1(A8G/G22E/R36G)-Fn8-p246-COL18NC1 to reduce the glucose level in animal models, we performed the Intraperitoneal glucose tolerance test (IPGTT) in SD rats. The fusion protein GLP1(A8G/G22E/R36G)-Fn8-p246-COL18NC1 was administered on SD (Sprague-Dawley) rats by intraperitoneal injections at the dose of 10 nmol/kg and 20 nmol/kg for animals, respectively. Glucose was injected into the animals with the dose of 2 g/kg at 8 hours, 32 hours and 100 hours after the injection of the fusion protein GLP1(A8G/G22E/R36G)-Fn8-p246-COL18NC1. Blood samples were taken at various time points after injections such as 0-min, 10-min, 20-min, 30-min, 60-min and 120-min. The glucose levels within the blood samples were measured using a Accu-Chek Performa blood glucose meter (Roche) immediately. In FIG. 9a, the rats were injected with GLP1(A8G/G22E/R36G)-Fn8-p246-COL18NC1 at the dose of 10 nmol/kg and 20 nmol/kg about 8 hours before the IPGTT experiments were conducted. […] In FIG. 9b, about 32 hours and 100 hours after the rats were injected with GLP1(A8G/G22E/R36G)-Fn8-p246-COL18NC1 at the dose of 20 nmol/kg, the IPGTT experiments were conducted.

B1: GLP1(A8G/G22E/R36G)-Fn8-p246-COL18NC1: GLP-1 mutant, Fn8, pCloud p246, COL18NC1 fusion; SEQ ID NO: 16 (protein)
chain: HGEGTFTSDVSSYLEEQAAKEFIAWLVKGGGSGGGSGGGSGGGSGGGSGSGGAVPPPTDLRFTNIGPDTMRVTWAPPPSIDLTNFLVRYSPVKNEEDVAELSISPSDNAVVLTNLLPGTEYVVSVSSVYEQHESTPLRGRQKTGGGGSGGGSGSGSESGSGGGSTSSGTGSETESPGSGSESGSGPSSAGSGSGSESGSGSGSSGPGSTGGSGSESGSGPGSSGTGGTATGSGSESGSGPGSSGPGSTGSGSGSESGSGSGSSGTGSTGGSGSESGSGPGSPRPGSTGTGSGSESGSGPGSSERGSAGGSGSESGSGTSESSASGSTGGSGSESGSGSESGSGSGSESGSGPESPGSGGSGSESGSGTSGSTGSGSESGSGGGSGGGSGGGASSGVRLWATRQAMLGQVHEVPEGWLIFVAEQEELYVRVQNGFRKVQLEARTPLPRG
B1 gave an AUCall ([1]; Monkey) of 1267.8 µg·h/mL, a CL/F ([1]; Monkey) of 0.48 mL/h/kg and a Cmax ([1]; Monkey) of 8.21 µg/mL. It also gave a T½ ([1]; Monkey) of 67.3 h, a Vss ([1]; Monkey) of 51.6 mL/kg and a half life ([1]; cynomolgus monkeys) of about 67 h. The “glucose level in IPGTT” value (SD rats; 10 nmol/kg intraperitoneal, about 8 hours before IPGTT, glucose 2 g/kg) was “can efficiently reduce the glucose level”, the “glucose level in IPGTT” value (SD rats; 20 nmol/kg intraperitoneal, about 8 hours before IPGTT, glucose 2 g/kg) was “can efficiently reduce the glucose level” and the “glucose level in IPGTT” value (SD rats; 20 nmol/kg, 100 hours after the injection) was “can still reduce the glucose level significantly”. The “glucose-reducing activity in IPGTT” value (SD rats; single dose 20 nmol/kg, IPGTT about 32 hours and 100 hours after injection) was “can maintain its glucose-reducing activity in vivo for an extended period of time”.
